In publication PMC2708863 (The Journal of Biological Chemistry, 2009):
Where two headings read alike, the source gives them in different places.

B1: ^3FnIII, third type III domain of human fibronectin (residues 810–900) (domain or fragment)
chain: not shown

How the values were obtained:
Assay in all cases: NMR titration
[1] = molecular target: T1, ^4–5FnI, human fibronectin residues 183–275 (human, UniProt P02751 183-275)
^4–5FnI (R222A) = ^4–5FnI (R222A) (human, UniProt P02751 183-275, R222A)
[2] = molecular target: T1, ^4–5FnI, human fibronectin residues …; remark: listed apart in the source
[3] = molecular target: B1

T1 sequence (P02751 183-275): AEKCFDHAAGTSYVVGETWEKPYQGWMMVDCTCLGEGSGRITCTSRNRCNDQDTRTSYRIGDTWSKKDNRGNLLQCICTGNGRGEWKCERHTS
Chain of ^4–5FnI (R222A) (P02751 183-275 R222A): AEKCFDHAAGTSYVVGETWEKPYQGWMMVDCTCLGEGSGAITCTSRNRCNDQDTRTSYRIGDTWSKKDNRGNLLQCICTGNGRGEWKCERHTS

Row | Kd [1] | fold reduction of affinity against the wild-type interaction (^4–5FnI (R222A)) | Kd [2] | Kd [3] | Binder
1 | 146 ± 9 µM | > 20 fold | 800 ± 46 µM |  | B1
2 |  |  |  | 820 ± 70 µM | ^2–3FnI, human fibronectin residues 93–182 (domain or fragment, UniProt P02751 93-182, looked up) AEETCFDKYTGNTYRVGDTYERPKDSMIWDCTCIGAGRGRISCTIANRCHEGGQSYKIGDTWRRPHETGGYMLECVCLGNGKGEWTCKPI
